Measurements: paper PMC6051341

What was measured:
[1] = target: ΔM-N L-selectin–GFP (human) (UniProt P14151); assay: FRET or BRET; FLIM measurement of FRET; THP-1 cells perfused over TNF-activated HUVECs, fixed in 4% PFA at 6 min (early TEM); optical section above the endothelium (top, non-transmigrated uropods)
[2] = target: ΔM-N L-selectin–GFP (human) (UniProt P14151); assay: FRET or BRET; FLIM measurement of FRET; THP-1 cells perfused over TNF-activated HUVECs, fixed in 4% PFA at 25 min (late TEM); optical section above the endothelium (top, non-transmigrated uropods)
[3] = target: ΔM-N L-selectin–GFP (human) (UniProt P14151); assay: FRET or BRET; FLIM measurement of FRET; THP-1 cells perfused over TNF-activated HUVECs, fixed in 4% PFA at 25 min (late TEM); optical section below the endothelium (base, transmigrated pseudopods)
[4] = target: ΔM-N L-selectin–GFP (human) (UniProt P14151); assay: FRET or BRET; FLIM measurement of FRET; THP-1 cells perfused over TNF-activated HUVECs, fixed in 4% PFA at 6 min (early TEM); optical section below the endothelium (base, transmigrated pseudopods)
[5] = target: ΔM-N L-selectin–GFP (human) (UniProt P14151); assay: FRET or BRET; FLIM measurement of FRET between GFP (donor, on L-selectin) and RFP (on the ERM protein); unchallenged THP-1 cells seeded onto poly-L-lysine-coated coverslips for 10 min at 37°C, fixed

UniProt P14151, sequence (P14151 39-372, stated change not applied): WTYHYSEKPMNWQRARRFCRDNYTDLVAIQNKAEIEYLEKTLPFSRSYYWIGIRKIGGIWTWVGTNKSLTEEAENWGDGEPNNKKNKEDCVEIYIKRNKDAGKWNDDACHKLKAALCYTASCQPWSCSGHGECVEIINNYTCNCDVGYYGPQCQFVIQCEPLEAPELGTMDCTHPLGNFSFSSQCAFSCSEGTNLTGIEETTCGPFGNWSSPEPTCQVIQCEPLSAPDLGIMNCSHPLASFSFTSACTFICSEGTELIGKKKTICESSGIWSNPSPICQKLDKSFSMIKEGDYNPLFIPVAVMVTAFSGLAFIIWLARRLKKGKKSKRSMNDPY

Substance: moesin–RFP (from UniProt P26041 1-577) (natural protein)
- FRET efficiency (uropods, 6 min) [1]: 2.7%
- FRET efficiency (uropods, 25 min) [2]: 2%
- FRET efficiency (pseudopods, 25 min) [3]: 4.2%
- FRET efficiency (pseudopods, 6 min) [4]: 2.4%

Substance: ezrin–RFP (from UniProt P15311 1-586) (natural protein)
- fold FRET efficiency against moesin with the same L-selectin (unchallenged cells) [5]: 3.2 fold
- FRET efficiency (uropods, 6 min) [1]: 6.5%
- FRET efficiency (uropods, 25 min) [2]: 7%
- FRET efficiency (pseudopods, 25 min) [3]: 6.5%
- FRET efficiency (pseudopods, 6 min) [4]: 7.1%
